Blank lines part the entries; values can stand above or below the binder they belong to. Numbered stars: 1 amine (or outer) side, 2 acyl side, 3 side chain; on linkers, the order of the positions; unused ones are H or OH. Bridge positions count the residues as written; N and C are the ends. Square brackets hold non-standard residues; d marks the D form. * marks the point of attachment. C20 diacid = O=C(O)CCCCCCCCCCCCCCCCCCC(=O)*; γGlu = O=C(O)[C@H](CCC(=O)[*:2])N[*:1]; Hyp = O=C(O)[C@@H]1C[C@@H](O)CN1; NMeI = CC[C@H](C)[C@H](NC)C(=O)O; Aad = N[C@@H](CCCC(=O)O)C(=O)O; Orn = NCCC[C@H](N)C(=O)O; Sar = CNCC(=O)O
Tests used:
[1] = molecular target: recombinant human amylin 3 receptor (hAMYR3) (human), P30988; assay: cell-based or functional assay
[2] = molecular target: recombinant human calcitonin receptor (hCT-R) (human), P30988; assay: cell-based or functional assay
recombinant human calcitonin receptor (hCT-R) (human), P30988, sequence (P30988 25-474): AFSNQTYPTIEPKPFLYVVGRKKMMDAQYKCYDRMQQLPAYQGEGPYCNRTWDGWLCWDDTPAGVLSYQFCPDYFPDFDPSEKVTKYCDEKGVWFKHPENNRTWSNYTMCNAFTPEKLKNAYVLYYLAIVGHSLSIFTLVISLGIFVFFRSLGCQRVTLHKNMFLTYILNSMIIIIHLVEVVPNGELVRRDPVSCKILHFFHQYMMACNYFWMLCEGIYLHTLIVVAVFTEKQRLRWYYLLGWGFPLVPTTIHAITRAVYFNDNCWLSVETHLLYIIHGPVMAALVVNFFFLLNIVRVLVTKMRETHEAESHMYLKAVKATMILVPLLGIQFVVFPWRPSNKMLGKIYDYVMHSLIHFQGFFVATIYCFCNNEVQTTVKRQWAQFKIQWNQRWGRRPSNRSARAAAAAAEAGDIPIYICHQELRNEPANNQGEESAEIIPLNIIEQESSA

recombinant human amylin 3 receptor (hAMYR3) (human), P30988, sequence (P30988 25-474, chain 1 of 2): as the sequence (P30988 25-474) above
recombinant human amylin 3 receptor (hAMYR3) (human), P30988, sequence (O60896 24-148, chain 2 of 2, further chain): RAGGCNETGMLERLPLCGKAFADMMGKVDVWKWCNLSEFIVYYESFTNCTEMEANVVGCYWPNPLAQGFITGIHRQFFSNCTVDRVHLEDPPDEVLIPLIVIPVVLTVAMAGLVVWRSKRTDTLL

hAMYR3 EC50 [nM] (cAMP formation, 1321N1 cells expressing hAMYR3) [1]: 0.005 nM | hCT-R EC50 [nM] (cAMP formation, 1321N1 cells expressing hCT-R) [2]: 0.006 nM
B1: Compound 32 (peptide)
peptide: {C20 diacid-γGlu}-RDGTATKATERLA[Aad]FLQRGGF[Sar]A[NMeI]LSSTEVGSNT[Hyp]-NH2
modifications: lactam 2-7
SMILES: CC[C@H](C)[C@@H](C(=O)N[C@@H](CC(C)C)C(=O)N[C@@H](CO)C(=O)N[C@@H](CO)C(=O)N[C@H](C(=O)N[C@@H](CCC(=O)O)C(=O)N[C@H](C(=O)NCC(=O)N[C@@H](CO)C(=O)N[C@@H](CC(N)=O)C(=O)N[C@H](C(=O)N1C[C@H](O)C[C@H]1C(N)=O)[C@@H](C)O)C(C)C)[C@@H](C)O)N(C)C(=O)[C@H](C)NC(=O)CN(C)C(=O)[C@H](Cc1ccccc1)NC(=O)CNC(=O)CNC(=O)[C@H](CCCNC(=N)N)NC(=O)[C@H](CCC(N)=O)NC(=O)[C@H](CC(C)C)NC(=O)[C@H](Cc1ccccc1)NC(=O)[C@H](CCCC(=O)O)NC(=O)[C@H](C)NC(=O)[C@H](CC(C)C)NC(=O)[C@H](CCCNC(=N)N)NC(=O)[C@H](CCC(=O)O)NC(=O)[C@@H](NC(=O)[C@H](C)NC(=O)[C@@H]1CCCCNC(=O)C[C@H](NC(=O)[C@H](CCCNC(=N)N)NC(=O)CC[C@H](NC(=O)CCCCCCCCCCCCCCCCCCC(=O)O)C(=O)O)C(=O)NCC(=O)N[C@@H]([C@@H](C)O)C(=O)N[C@@H](C)C(=O)N[C@@H]([C@@H](C)O)C(=O)N1)[C@@H](C)O

hAMYR3 EC50 [nM] (cAMP formation, 1321N1 cells expressing hAMYR3) [1]: 0.122 nM | hCT-R EC50 [nM] (cAMP formation, 1321N1 cells expressing hCT-R) [2]: 0.232 nM
B2: Compound 30 (peptide)
peptide: {C20 diacid-γGlu}-EDGTATKATERLA[Aad]FLQRSSF[Sar]A[NMeI]PSSTEVGSNT[Hyp]-NH2
modifications: lactam 2-7
SMILES: CC[C@H](C)[C@@H](C(=O)N1CCC[C@H]1C(=O)N[C@@H](CO)C(=O)N[C@@H](CO)C(=O)N[C@H](C(=O)N[C@@H](CCC(=O)O)C(=O)N[C@H](C(=O)NCC(=O)N[C@@H](CO)C(=O)N[C@@H](CC(N)=O)C(=O)N[C@H](C(=O)N1C[C@H](O)C[C@H]1C(N)=O)[C@@H](C)O)C(C)C)[C@@H](C)O)N(C)C(=O)[C@H](C)NC(=O)CN(C)C(=O)[C@H](Cc1ccccc1)NC(=O)[C@H](CO)NC(=O)[C@H](CO)NC(=O)[C@H](CCCNC(=N)N)NC(=O)[C@H](CCC(N)=O)NC(=O)[C@H](CC(C)C)NC(=O)[C@H](Cc1ccccc1)NC(=O)[C@H](CCCC(=O)O)NC(=O)[C@H](C)NC(=O)[C@H](CC(C)C)NC(=O)[C@H](CCCNC(=N)N)NC(=O)[C@H](CCC(=O)O)NC(=O)[C@@H](NC(=O)[C@H](C)NC(=O)[C@@H]1CCCCNC(=O)C[C@H](NC(=O)[C@H](CCC(=O)O)NC(=O)CC[C@H](NC(=O)CCCCCCCCCCCCCCCCCCC(=O)O)C(=O)O)C(=O)NCC(=O)N[C@@H]([C@@H](C)O)C(=O)N[C@@H](C)C(=O)N[C@@H]([C@@H](C)O)C(=O)N1)[C@@H](C)O

hAMYR3 EC50 [nM] (cAMP formation, 1321N1 cells expressing hAMYR3) [1]: 0.268 nM | hCT-R EC50 [nM] (cAMP formation, 1321N1 cells expressing hCT-R) [2]: 1.23 nM
B3: Compound 28 (peptide)
peptide: {C20 diacid-γGlu}-RDQTAT[Orn]ATERLA[Aad]FLQRGTF[Sar]A[NMeI]LSSTEVGSNT[Hyp]-NH2
modifications: lactam 2-7
SMILES: CC[C@H](C)[C@@H](C(=O)N[C@@H](CC(C)C)C(=O)N[C@@H](CO)C(=O)N[C@@H](CO)C(=O)N[C@H](C(=O)N[C@@H](CCC(=O)O)C(=O)N[C@H](C(=O)NCC(=O)N[C@@H](CO)C(=O)N[C@@H](CC(N)=O)C(=O)N[C@H](C(=O)N1C[C@H](O)C[C@H]1C(N)=O)[C@@H](C)O)C(C)C)[C@@H](C)O)N(C)C(=O)[C@H](C)NC(=O)CN(C)C(=O)[C@H](Cc1ccccc1)NC(=O)[C@@H](NC(=O)CNC(=O)[C@H](CCCNC(=N)N)NC(=O)[C@H](CCC(N)=O)NC(=O)[C@H](CC(C)C)NC(=O)[C@H](Cc1ccccc1)NC(=O)[C@H](CCCC(=O)O)NC(=O)[C@H](C)NC(=O)[C@H](CC(C)C)NC(=O)[C@H](CCCNC(=N)N)NC(=O)[C@H](CCC(=O)O)NC(=O)[C@@H](NC(=O)[C@H](C)NC(=O)[C@@H]1CCCNC(=O)C[C@H](NC(=O)[C@H](CCCNC(=N)N)NC(=O)CC[C@H](NC(=O)CCCCCCCCCCCCCCCCCCC(=O)O)C(=O)O)C(=O)N[C@@H](CCC(N)=O)C(=O)N[C@@H]([C@@H](C)O)C(=O)N[C@@H](C)C(=O)N[C@@H]([C@@H](C)O)C(=O)N1)[C@@H](C)O)[C@@H](C)O

hAMYR3 EC50 [nM] (cAMP formation, 1321N1 cells expressing hAMYR3) [1]: 0.066 nM | hCT-R EC50 [nM] (cAMP formation, 1321N1 cells expressing hCT-R) [2]: 0.227 nM
B4: Compound 31 (peptide)
peptide: {C20 diacid-γGlu}-RDGTATKATERLA[Aad]FLQRAAF[Sar]A[NMeI]LSSTEVGSNT[Hyp]-NH2
modifications: lactam 2-7
SMILES: CC[C@H](C)[C@@H](C(=O)N[C@@H](CC(C)C)C(=O)N[C@@H](CO)C(=O)N[C@@H](CO)C(=O)N[C@H](C(=O)N[C@@H](CCC(=O)O)C(=O)N[C@H](C(=O)NCC(=O)N[C@@H](CO)C(=O)N[C@@H](CC(N)=O)C(=O)N[C@H](C(=O)N1C[C@H](O)C[C@H]1C(N)=O)[C@@H](C)O)C(C)C)[C@@H](C)O)N(C)C(=O)[C@H](C)NC(=O)CN(C)C(=O)[C@H](Cc1ccccc1)NC(=O)[C@H](C)NC(=O)[C@H](C)NC(=O)[C@H](CCCNC(=N)N)NC(=O)[C@H](CCC(N)=O)NC(=O)[C@H](CC(C)C)NC(=O)[C@H](Cc1ccccc1)NC(=O)[C@H](CCCC(=O)O)NC(=O)[C@H](C)NC(=O)[C@H](CC(C)C)NC(=O)[C@H](CCCNC(=N)N)NC(=O)[C@H](CCC(=O)O)NC(=O)[C@@H](NC(=O)[C@H](C)NC(=O)[C@@H]1CCCCNC(=O)C[C@H](NC(=O)[C@H](CCCNC(=N)N)NC(=O)CC[C@H](NC(=O)CCCCCCCCCCCCCCCCCCC(=O)O)C(=O)O)C(=O)NCC(=O)N[C@@H]([C@@H](C)O)C(=O)N[C@@H](C)C(=O)N[C@@H]([C@@H](C)O)C(=O)N1)[C@@H](C)O

hAMYR3 EC50 [nM] (cAMP formation, 1321N1 cells expressing hAMYR3) [1]: 0.312 nM | hCT-R EC50 [nM] (cAMP formation, 1321N1 cells expressing hCT-R) [2]: 1.07 nM
B5: Compound 29 (peptide)
peptide: {C20 diacid-γGlu}-RDPTATKATERLA[Aad]FLQRSSF[Sar]A[NMeI]LSSTEVGSNT[Hyp]-NH2
modifications: lactam 2-7
SMILES: CC[C@H](C)[C@@H](C(=O)N[C@@H](CC(C)C)C(=O)N[C@@H](CO)C(=O)N[C@@H](CO)C(=O)N[C@H](C(=O)N[C@@H](CCC(=O)O)C(=O)N[C@H](C(=O)NCC(=O)N[C@@H](CO)C(=O)N[C@@H](CC(N)=O)C(=O)N[C@H](C(=O)N1C[C@H](O)C[C@H]1C(N)=O)[C@@H](C)O)C(C)C)[C@@H](C)O)N(C)C(=O)[C@H](C)NC(=O)CN(C)C(=O)[C@H](Cc1ccccc1)NC(=O)[C@H](CO)NC(=O)[C@H](CO)NC(=O)[C@H](CCCNC(=N)N)NC(=O)[C@H](CCC(N)=O)NC(=O)[C@H](CC(C)C)NC(=O)[C@H](Cc1ccccc1)NC(=O)[C@H](CCCC(=O)O)NC(=O)[C@H](C)NC(=O)[C@H](CC(C)C)NC(=O)[C@H](CCCNC(=N)N)NC(=O)[C@H](CCC(=O)O)NC(=O)[C@@H](NC(=O)[C@H](C)NC(=O)[C@@H]1CCCCNC(=O)C[C@H](NC(=O)[C@H](CCCNC(=N)N)NC(=O)CC[C@H](NC(=O)CCCCCCCCCCCCCCCCCCC(=O)O)C(=O)O)C(=O)N2CCC[C@H]2C(=O)N[C@@H]([C@@H](C)O)C(=O)N[C@@H](C)C(=O)N[C@@H]([C@@H](C)O)C(=O)N1)[C@@H](C)O
